The source of these data is patent EP4785962A1, “ANTIBODY-DRUG CONJUGATE TARGETING TROP2, AND PREPARATION METHOD AND USE THEREFOR” (priority 2023, dated 2025).

By Kd is commonly meant the free concentration of one partner at which half of the binding sites on the other are occupied at equilibrium, for simple one-to-one binding. Usually koff stands for the first-order rate constant of dissociation. What is called kon is the rate constant with which the complex forms. The term EC50 denotes the midpoint of the concentration-response curve. The IC50 is the concentration at which inhibition is half-maximal.

In data set [1] the target is Rhesus Monkey Trop2 protein (Sino Biological 90893-C08H) (rhesus monkey). The experiment in a line: BLI (Octet Red96e), antibody on AHC sensor, antigen 100 nM.
Data set [2] concerns the target Recombinant human TROP2 protein (Sino Biological) (human) (UniProt P09758). The data set is described as above.
Data set [3] deals with human TROP2 protein on the surface of FaDu cells (human) (UniProt P09758). The experiment in a line: flow cytometry on FaDu cells, fluorescent secondary antibody. On the technique in general: In flow cytometry, cells or beads pass a laser one at a time.
For data set [4] the following is noted: mouse, in vivo, 10 mg/kg; cited from earlier work.
Data set [5] relates to drug-resistant triple-negative breast cancer (TNBC). As to conditions: patients with drug-resistant triple-negative breast cancer (TNBC); cited from earlier work.
Data set [6] relates to human pancreatic cancer cell line BxPC-3. The experiment in a line: In vitro cytotoxicity test, BxPC3 cells, 6 days. In kind it is cell-based. Particulars: BxPC3, 6 days of culture. The procedure: (§1) 10% FBS (SH30406.05, HYCLONE) was added to RPMI 1640 (22400-071, Gibco), and the mixture was mixed well to prepare a BxPC3 cell (ATCC) growth medium. BxPC3 or FaDu cells were adjusted to a concentration of 50000 cells/mL with a growth medium, seeded into a 96-well white-bottom plate (167008, NUNC) at 50 µL per well (2500 cells/well), and incubated overnight in an incubator at 37 °C. The antibody was diluted with growth medium and serially diluted 5-fold from 200 nM (2×) to obtain 9 gradients, with the final concentration being […]. The diluted antibody-drug conjugate or control was added at 50 µL/well, and the total volume was 100 µL. […] The cell pellet was fully lysed by shaking on a plate shaker for 5 min, and the luminescence signal was stabilized by standing at room temperature for 10 min. The culture plate was tested on a microplate reader (spectra MAX i3x, Molecular Divices), the […] were taken, and the cell viability was calculated. […]
(§2) The cell proliferation inhibition rate after 6 days of culture was calculated using the following formula.
(§3) Cell proliferation inhibition rate (%) = […], where a: the average value of experimental sample-added wells after 6 days of culture; b: the average value of control medium-added wells after 6 days of culture. The data were fitted by GraphPad Prism and the IC50 of the drug was calculated (Table 4).

Data set [7] concerns human hypopharyngeal carcinoma squamous cell line FaDu. Briefly: In vitro cytotoxicity test, FaDu cells, 6 days. In kind it is cell-based. As to conditions: 6 days of culture. The procedure:
as §1, §2, §3

For data set [8] the following is noted: Days 1 and 8/every 21 days for 4 cycles; EMEA/H/C/005182/0000; cited from earlier work.
Data set [9] has as its system Human gastric cancer cell line NCI-N87. The experiment in a line: Mouse xenograft tumor model NCI-N87. It counts as in vivo, immunodeficient mice CB17-SCID. As to conditions: intraperitoneal injection. The procedure:
• 1. Mice: immunodeficient mice CB17-SCID (Vital River) aged 6-8 weeks were placed in an SPF experimental environment for 3-5 days before the experiment to better adapt to the current living environment. In all experiments, the long and short diameters of the tumor were measured twice a week using a vernier caliper, and the tumor volume (mm^3) was calculated from the measured data. The calculation formula is as follows: Tumor volume(mm^3) = 0.5 × long diameter(mm) × short diameter(mm) × short diameter(mm) [formula] • 2. Human gastric cancer cell line NCI-N87 (ATCC) cells were resuspended in 1× PBS (Gibco, 10010049) at an appropriate concentration, and the tumor cells were implanted subcutaneously in the right abdomen of the mice at an inoculation amount of 2×10^6 /mouse. When the tumor volume reached 150-200 mm^3, the mice were divided into groups such that the average initial administration volume of each group was substantially the same. After grouping, different doses of antibody-drug conjugates hRs7-DXd, hRS7-MB3 and hTINA1-DXd, or control-drug conjugates IgG-MB3, IgG-DXd and IgG control were administered by intraperitoneal injection. […] Compared with hRS7-DXd, hRS7-MB3 has a stronger tumor inhibitory effect. […] Non-small cell lung cancer cell line HCC827 cells purchased from ATCC were inoculated subcutaneously into mice (2×10^6 /mouse), and when the tumor volume reached 120-150 mm^3, the mice were grouped and administered. Different doses of the antibody-drug conjugate and the control drug were intraperitoneally injected into the mice, and the administration was performed only once throughout the experiment. The growth status of the mice was observed, and the changes in tumor volume of the mice were measured. […] The lung squamous cell carcinoma cell line LK-2 (CBP60105) purchased from Nanjing Cobioer Biosciences was implanted subcutaneously in the right abdomen of the mice at an inoculation amount of 3 × 10 ^6 cells/mouse. When the tumor volume reached 150-200 mm^3, the mice were divided into groups such that the average initial administration volume of each group was substantially the same. The mice were administered only once throughout the experiment and injected intraperitoneally at a dose of 10 mg/kg. IgG-MB3 or IgG-DXd was used as a negative control. It was observed that two TROP2-targeted ADCs were also able to delay tumor growth in a tumor model with relatively low TROP2 expression (FIG. 7). […] The pancreatic cancer cell line BxPC3 cells purchased from ATCC were implanted subcutaneously in the right abdomen of the mice at an inoculation amount of 3 × 10 ^6 cells/mouse. […]

Data set [10] addresses T1, mouse TROP2 (Sino Biological 50922-M08H) (mouse, UniProt Q8BGV3 25-270).
T1 construct: Bought recombinant protein
T1 sequence (looked up): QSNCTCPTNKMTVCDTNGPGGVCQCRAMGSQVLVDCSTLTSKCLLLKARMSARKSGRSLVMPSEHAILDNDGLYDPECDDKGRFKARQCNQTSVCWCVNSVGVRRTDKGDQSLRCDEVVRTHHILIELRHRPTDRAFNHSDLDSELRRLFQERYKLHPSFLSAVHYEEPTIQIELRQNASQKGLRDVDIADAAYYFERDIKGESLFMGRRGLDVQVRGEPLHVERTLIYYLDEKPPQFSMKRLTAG
The experiment in a line: BLI (Octet Red96e), antibody on AHC sensor, antigen in solution. (In general: Biolayer interferometry detects binding as a change in optical thickness at a sensor tip.)

In data set [11] the target is T2, rat TROP2 (Sino Biological 86246-R08H) (rat, UniProt A0ABK0L8S5 21-268).
T2 construct: Bought recombinant protein
T2 sequence: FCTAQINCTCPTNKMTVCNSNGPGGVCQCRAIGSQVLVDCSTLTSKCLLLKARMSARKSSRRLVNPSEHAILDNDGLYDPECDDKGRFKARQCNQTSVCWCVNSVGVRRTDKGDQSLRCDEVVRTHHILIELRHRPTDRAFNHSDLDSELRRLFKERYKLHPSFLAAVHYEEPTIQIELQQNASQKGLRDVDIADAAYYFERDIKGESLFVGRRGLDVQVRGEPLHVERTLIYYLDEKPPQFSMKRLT
Described as above.

Data set [12] deals with T3, Recombinant human TROP2 protein (Sino Biological) (human, UniProt P09758 27-274).
T3 construct: Bought recombinant protein; The two paragraphs give different catalogue numbers; also called TACSTD2
T3 sequence (looked up): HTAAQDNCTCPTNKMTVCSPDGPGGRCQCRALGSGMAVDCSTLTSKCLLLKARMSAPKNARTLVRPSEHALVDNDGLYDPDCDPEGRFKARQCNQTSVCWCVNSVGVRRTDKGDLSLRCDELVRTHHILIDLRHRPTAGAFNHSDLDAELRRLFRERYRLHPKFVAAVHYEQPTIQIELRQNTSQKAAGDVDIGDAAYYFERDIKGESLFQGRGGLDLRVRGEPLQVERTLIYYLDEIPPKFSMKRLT
Briefly: BLI (Octet Red96e), antibody on AHC sensor, antigen 100 nM.

Data set [13] addresses T4, Rhesus Monkey Trop2 protein (Sino Biological 90893-C08H) (rhesus monkey, UniProt A0A5F8AGB8 27-274).
T4 construct: Bought recombinant protein
T4 sequence: T3 sequence (looked up) with M36V, S67N, I204V
The data set is described as above.

The target in data set [14] is T5, human TROP2 protein on the surface of FaDu cells (human, UniProt P09758 27-323).
T5 construct: whole, on cells; also called TROP2 protein on cell surface; human TROP2 protein at the cellular level
T5 sequence (looked up): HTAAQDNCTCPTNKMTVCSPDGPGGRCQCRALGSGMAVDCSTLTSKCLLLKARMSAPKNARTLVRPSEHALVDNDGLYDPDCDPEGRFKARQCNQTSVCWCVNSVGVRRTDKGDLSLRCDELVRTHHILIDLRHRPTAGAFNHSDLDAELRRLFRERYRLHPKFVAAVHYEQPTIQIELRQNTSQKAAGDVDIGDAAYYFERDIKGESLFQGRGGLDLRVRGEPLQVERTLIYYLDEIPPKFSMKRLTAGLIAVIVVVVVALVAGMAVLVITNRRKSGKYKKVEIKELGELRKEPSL
Briefly: flow cytometry on FaDu cells, fluorescent secondary antibody.

Residue numbers refer to the chain shown, from its start.

In data set [1], “hTINA1 (the antibody used in Ds-1062), positive control antibody” yielded a Kd of 32.5 nM, a Response of 0.21, an off-rate constant (koff) of 0.00356 s⁻¹ and an on-rate (kon) of 110000 M⁻¹ s⁻¹. In [2], the Kd was 22.8 nM, the Response came out at 0.284, the koff was 0.0035 s⁻¹ and the on-rate (kon) worked out at 154000 M⁻¹ s⁻¹. For the same molecule, in [3], the EC50 was 1.7 nM.
Trodelvy [reference compound]: the half-life in mice in data set [4] is reported as 11 h. Further, the “objective response rate (ORR)” value in [5] is given as 33%. For the same molecule, the IC50 amounted to 0.42 nM in data set [6] and 0.53 nM in [7]. The HNSTD in [8] is on record as 50 mg/kg.
In the case of “hRS7-DXd: antibody hRS7 conjugated with Linker-DXd, average DAR 4.4 [reference compound]”, the tumor inhibitory effect result in data set [9] (high-dose group (3 mg/kg)) is recorded as “comparable tumor inhibitory effects”; in data set [9] (low dose (1 mg/kg), compared with IgG-MB3 and IgG-DXd), “a certain degree of tumor inhibitory effect”.

B1: hRS7 antibody (hRS7-IgG1), humanized antibody targeting TROP2 in IgG1 form (antibody, V domains shown)
VH: QVQLQQSGSELKKPGASVKVSCKASGYTFTNYGMNWVKQAPGQGLKWMGWINTYTGEPTYTDDFKGRFAFSLDTSVSTAYLQISSLKADDTAVYFCARGGFGSSYWYFDVWGQGSLVTVSS
VL: DIQLTQSPSSLSASVGDRVSITCKASQDVSIAVAWYQQKPGKAPKLLIYSASYRYTGVPDRFSGSGSGTDFTLTISSLQPEDFAVYYCQQHYITPLTFGAGTKVEIKR
B1: the binding result in data set [10] was “no binding (tested: 100 nM)”. For the same molecule, in [11], the binding result was “no binding (tested: 100 nM)”. Also, in data set [12], the Kd is 4.52 nM, the koff amounted to 0.00056 s⁻¹ and the kon stood at 124000 M⁻¹ s⁻¹. Besides, in data set [13], the Kd turned out to be 7.75 nM, the koff was 0.000823 s⁻¹ and the association rate constant (kon) was 106000 M⁻¹ s⁻¹. Also, in [14], the EC50 stood at 1.58 nM.
